Test results from the supplement of paper PMC10567573.

B1: CDC14A (parent)
chain: GPHPKSKIENGYPLHAPEAYFPYF
B2: PPFIA4 (parent)
chain: PGVHRRYSALREESAKDWETSPLP

Variants of: B1
Assay: protein stability index of a GFP-peptide fusion (GPS, HEK-293T) (PSI 1-6); higher = more stable
Settings: c terminus: a fixed tail appended
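Further: lentivirally expressed fusions sorted by FACS into six bins by GFP to DsRed ratio, PSI derived from sequencing read proportions per bin multiplied by bin number.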

Variant | protein stability index
RPHPKSKIENGYPLHAPEAYFPYF | 1.88
SPHPKSKIENGYPLHAPEAYFPYF | 1.99
IPHPKSKIENGYPLHAPEAYFPYF | 1.85
FPHPKSKIENGYPLHAPEAYFPYF | 2.01
DPHPKSKIENGYPLHAPEAYFPYF | 2.51
VPHPKSKIENGYPLHAPEAYFPYF | 1.89
KPHPKSKIENGYPLHAPEAYFPYF | 1.57
HPHPKSKIENGYPLHAPEAYFPYF | 2.08
QPHPKSKIENGYPLHAPEAYFPYF | 2.03
MPHPKSKIENGYPLHAPEAYFPYF | 2.51
LPHPKSKIENGYPLHAPEAYFPYF | 2.05
TPHPKSKIENGYPLHAPEAYFPYF | 2.7
APHPKSKIENGYPLHAPEAYFPYF | 1.82
EPHPKSKIENGYPLHAPEAYFPYF | 2.44
CPHPKSKIENGYPLHAPEAYFPYF | 2.1
NPHPKSKIENGYPLHAPEAYFPYF | 2.56

Variants of: B2
Assay: as above
Settings: c terminus: a fixed tail appended

Variant | protein stability index
PGVHRRYSALREESFKDWETSPLP | 3.52
PGVHRRYSALREESGKDWETSPLP | 4.07
PGVHRRYSALREESRKDWETSPLP | 4
PGVHRRYSALREESCKDWETSPLP | 3.63
PGVHRRYSALREESNKDWETSPLP | 3.92
PGVHRRYSALREESKKDWETSPLP | 4.59
PGVHRRYSALREESQKDWETSPLP | 3.63
PGVHRRYSALREESDKDWETSPLP | 4.92
PGVHRRYSALREESVKDWETSPLP | 3.89
PGVHRRYSALREESTKDWETSPLP | 4.63
PGVHRRYSALREESYKDWETSPLP | 3.32
PGVHRRYSALREESPKDWETSPLP | 4.12
PGVHRRYSALREESLKDWETSPLP | 4.12
PGVHRRYSALREESWKDWETSPLP | 3.86
PGVHRRYSALREESEKDWETSPLP | 4.52
PGVHRRYSALREESHKDWETSPLP | 4.39
PGVHRRYSALREESSKDWETSPLP | 3.76
PGVHRRYSALREESMKDWETSPLP | 2.77
PGVHRRYSALREESAKDWQTSPLP | 4.18
PGVHRRYSALREESAKDWHTSPLP | 3.41
PGVHRRYSALREESAKDWDTSPLP | 4.03
PGVHRRYSALREESAKDWSTSPLP | 3.17
PGVHRRYSALREESAKDWMTSPLP | 2.93
PGVHRRYSALREESAKDWNTSPLP | 3.42
PGVHRRYSALREESAKDWVTSPLP | 3.24

Variant | protein stability index
PGVHRRYSALREESAKDWFTSPLP | 2.4
PGVHRRYSALREESAKDWWTSPLP | 2.41
PGVHRRYSALREESAKDWKTSPLP | 3.68
PGVHRRYSALREESAKDWPTSPLP | 3.59
PGVHRRYSALREESAKDWATSPLP | 2.97
PGVHRRYSALREESAKDWTTSPLP | 3.96
PGVHRRYSALREESAKDWCTSPLP | 3
PGVHRRYSALREESAKDWYTSPLP | 2.37
PGVHRRYSALREESAKDWRTSPLP | 3.55
PGVHRRYSALREESAKDWITSPLP | 3.41
PGVHRRYSALREESAKDWLTSPLP | 3.97
PGVHRRYSALREESAEDWETSPLP | 4.51
PGVHRRYSALREESADDWETSPLP | 4.45
PGVHRRYSALREESACDWETSPLP | 4.02
PGVHRRYSALREESAQDWETSPLP | 3.67
PGVHRRYSALREESAIDWETSPLP | 3.96
PGVHRRYSALREESALDWETSPLP | 4.05
PGVHRRYSALREESAPDWETSPLP | 3.89
PGVHRRYSALREESAADWETSPLP | 3.7
PGVHRRYSALREESASDWETSPLP | 4.13
PGVHRRYSALREESATDWETSPLP | 4.5
PGVHRRYSALREESANDWETSPLP | 4.66
PGVHRRYSALREESAVDWETSPLP | 4.2
PGVHRRYSALREESAMDWETSPLP | 4.24
PGVHRRYSALREESARDWETSPLP | 3.99

Variant | protein stability index
PGVHRRYSALREESAFDWETSPLP | 3.17
PGVHRRYSALREESAHDWETSPLP | 4.17
PGVHRRYSALREEYAKDWETSPLP | 3.46
PGVHRRYSALREETAKDWETSPLP | 3.56
PGVHRRYSALREEVAKDWETSPLP | 3.92
PGVHRRYSALREEWAKDWETSPLP | 2.81
PGVHRRYSALREESAKDWETSPVP | 2.13
PGVHRRYSALREESAKDWETSPKP | 5.38
PGVHRRYSALREESAKDWETSPFP | 4.27
PGVHRRYSALREESAKDWETSPDP | 4.55
PGVHRRYSALREESAKDWETSPSP | 4.56
PGVHRRYSALREESAKDWETSPNP | 5
PGVHRRYSALREESAKDWETSPHP | 4.53
PGVHRRYSALREESAKDWETSPAP | 4.67
PGVHRRYSALREESAKDWETSPRP | 4.25
PGVHRRYSALREESAKDWETSPQP | 4.37
PGVHRRYSALREESAKDWETSPIP | 4.26
PGVHRRYSALREESAKDWETSPYP | 3.87
PGVHRRYSALREESAKDWETSPEP | 3.3
PGVHRRYSALREESAKDWETSPMP | 4.79
PGVHRRYSALREESAKDWETSPLH | 3.19
PGVHRRYSALREESAKDWETSPLI | 3.87
PGVHRRYSALREESAKDWETSPLQ | 3.45
PGVHRRYSALREESAKDWETSPLN | 4.43
PGVHRRYSALREESAKDWETSPLG | 4.25

Variant | protein stability index
PGVHRRYSALREESAKDWETSPLD | 4.59
PGVHRRYSALREESAKDWETSPLE | 4.71
PGVHRRYSALREESAKDWETSPLT | 4.04
PGVHRRYSALREESAKDWETSPLF | 3.59
PGVHRRYSALREESAKDWETSPLL | 3.62
PGVHRRYSALREESAKDWETSPLM | 3.97
PGVHRRYSALREESAKDWETSPLY | 3.45
PGVHRRYSALREESAKDWETSPLC | 4.22
PGVHRRYSALREESAKDWETSPLV | 4.15
PGVHRRYSALREESAKDWETSPLS | 3.83
PGVHRRYSALREESAKDWETSPLK | 4.6
PGVHRRYSALREESAKDRETSPLP | 4.42
PGVHRRYSALREESAKDHETSPLP | 5.23
PGVHRRYSALREESAKDLETSPLP | 4.96
PGVHRRYSALREESAKDAETSPLP | 4.95
PGVHRRYSALREESAKDCETSPLP | 5.36
PGVHRRYSALREESAKDIETSPLP | 4.81
PGVHRRYSALREESAKDPETSPLP | 5.21
PGVHRRYSALREESAKDDETSPLP | 5.58
PGVHRRYSALREESAKDKETSPLP | 4.7
PGVHRRYSALREESAKDGETSPLP | 5.21
PGVHRRYSALREESAKDQETSPLP | 4.77
PGVHRRYSALREESAKDYETSPLP | 4.73
PGVHRRYSALREESAKDVETSPLP | 4.67
PGVHRRYSALREESAKDEETSPLP | 5.15

Variant | protein stability index
PGVHRRYSALREESAKDTETSPLP | 5.24
PGVHRRYSALREESAKDNETSPLP | 5.29
PGVHRRYSALREESAKDFETSPLP | 4.4
PGVHRRYSALREESAKDMETSPLP | 5.08
PGVHRRYSALREESAKDWEMSPLP | 4.37
PGVHRRYSALREESAKDWERSPLP | 3.66
PGVHRRYSALREESAKDWEESPLP | 4.62
PGVHRRYSALREESAKDWEASPLP | 4.05
PGVHRRYSALREESAKDWEKSPLP | 4.17
PGVHRRYSALREESAKDWECSPLP | 3.75
PGVHRRYSALREESAKDWEQSPLP | 4.49
PGVHRRYSALREESAKDWEWSPLP | 2.3
PGVHRRYSALREESAKDWEDSPLP | 5.09
PGVHRRYSALREESAKDWEHSPLP | 4.47
PGVHRRYSALREESAKDWEFSPLP | 2.71
PGVHRRYSALREESAKDWESSPLP | 4.83
PGVHRRYSALREESAKDWEYSPLP | 3.46
PGVHRRYSALREESAKDWEGSPLP | 4.55
PGVHRRYSALREESAKDWELSPLP | 3.36
PGVHRRYSALREESAKDWENSPLP | 4.55
PGVHRRYSALREESAKDWEVSPLP | 2.73
PGVHRRYSALREESAKDWEPSPLP | 4.6
PGVHRRYSALREESAKWWETSPLP | 1.97
PGVHRRYSALREESAKAWETSPLP | 3.29
PGVHRRYSALREESAKCWETSPLP | 3.53

Variant | protein stability index
PGVHRRYSALREESAKGWETSPLP | 3.9
PGVHRRYSALREESAKTWETSPLP | 3.31
PGVHRRYSALREESAKRWETSPLP | 3.34
PGVHRRYSALREESAKSWETSPLP | 4.16
PGVHRRYSALREESAKIWETSPLP | 3.33
PGVHRRYSALREESAKNWETSPLP | 3.98
PGVHRRYSALREESAKLWETSPLP | 2.89
PGVHRRYSALREESAKVWETSPLP | 3.86
PGVHRRYSALREESAKQWETSPLP | 3.39
PGVHRRYSALREESAKYWETSPLP | 2.72
PGVHRRYSALREESAKKWETSPLP | 3.36
PGVHRRYSALREESAKPWETSPLP | 3.04
PGVHRRYSALREESAKDWETSSLP | 4.31
PGVHRRYSALREESAKDWETSKLP | 4.23
PGVHRRYSALREESAKDWETSILP | 3.48
PGVHRRYSALREESAKDWETSELP | 4.94
PGVHRRYSALREESAKDWETSTLP | 3.04
PGVHRRYSALREESAKDWETSALP | 4.11
PGVHRRYSALREESAKDWETSRLP | 3.18
PGVHRRYSALREESAKDWETSDLP | 4.63
PGVHRRYSALREESAKDWETSCLP | 4.02
PGVHRRYSALREESAKDWETSVLP | 3.68
PGVHRRYSALREESAKDWETSHLP | 4.28
PGVHRRYSALREESAKDWETSLLP | 3.67
PGVHRRYSALREESAKDWETSNLP | 4.52

Variant | protein stability index
PGVHRRYSALREESAKDWETSYLP | 3.3
PGVHRRYSALREESAKDWETSFLP | 3.19
PGVHRRYSALREESAKDWETSQLP | 4.63
PGVHRRYSALREESAKDWETEPLP | 4.5
PGVHRRYSALREESAKDWETIPLP | 3.39
PGVHRRYSALREESAKDWETWPLP | 4.24
PGVHRRYSALREESAKDWETPPLP | 4.08
PGVHRRYSALREESAKDWETFPLP | 3.34
PGVHRRYSALREESAKDWETRPLP | 4.03
PGVHRRYSALREESAKDWETAPLP | 4.93
PGVHRRYSALREESAKDWETHPLP | 3.42
PGVHRRYSALREESAKDWETNPLP | 5.33
PGVHRRYSALREESAKDWETGPLP | 3.25
PGVHRRYSALREESAKDWETLPLP | 3.6
PGVHRRYSALREESAKDWETCPLP | 3.88
PGVHRRYSALREESAKDWETMPLP | 3.67
PGVHRRYSALREESAKDWETYPLP | 3.2
PGVHRRYSALREESAKDWETVPLP | 3.76
PGVHRRYSALREESAKDWETQPLP | 4.24
PGVHRRYSALREESAKDWETDPLP | 5.1
PGVHRRYSALREESAKDWETKPLP | 3.98
PGVHRRYSALREESAKDWETTPLP | 4.07
